The RNAGym collection of RNA variant scans (doi:10.1073/pnas.2313332121)
Fewer inactive variants are shown than the library holds.

B1: TPR 5TU (parent)
chain: GGAUCUUCUCGAUCUAACAAAAAAGACAAAUCUGCCACAAAGCUUGAGAGCAUCUUCGGAUGCAGAGGCGGCAGCCUUCGGUGGCGCGAUAGCGCCAACGUUCUCAACUAUGACACGCAAAACGCGUGCUCCGUUGAAUGGAGUUUAUCAUG

Variants of: B1
Assay: polymerase ribozyme fitness, log enrichment relative to wild type (log ratio); higher = more active; in vitro selection for triplet polymerase activity
Outline: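 Input and output libraries were sequenced on Illumina after a single in vitro selection round, run in triplicate on PCR-built, transcribed mutant libraries of each subunit of a heterodimeric triplet polymerase ribozyme. Selection annealed libraries to a biotinylated primer, the partner subunit and triplets, incubated them frozen at −7 °C, then gel-excised extended constructs for streptavidin-bead capture and RT-PCR. Genotypes with ≥10 input reads and ≥1 read per output were kept. Fitness is the logarithm, taken in base 2, of genotype enrichment divided by wild-type enrichment, using inverse-variance-weighted replicate averages.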

Going from G70U C131U A137G to C72G C99G, the “polymerase ribozyme fitness (log ratio)” value falls from -4.05 to ≤ -4.2.

Compared with C72G A147U, G71C U109A U111G is lower in “polymerase ribozyme fitness (log ratio)” value: -3.16 for the first, ≤ -4.2 for the second.

Going from G71U A89U C95A to A73G G94A U148C, the “polymerase ribozyme fitness (log ratio)” value rises from -3.94 to -3.66.

Going from G71U to G71A, the “polymerase ribozyme fitness (log ratio)” value falls from -1.93 to -2.47.

Compared with G71C, C72U U104G A106G U144A is lower in “polymerase ribozyme fitness (log ratio)” value: -2.66 for the first, -4.01 for the second.

First: G74A A122G
Second: A73C U77C C93U
The “polymerase ribozyme fitness (log ratio)” value of the first is higher: -3.39 for the first, ≤ -4.2 for the second.

G71U G84A A106U C118A G152A and G71A G88A cannot be ordered by “polymerase ribozyme fitness (log ratio)” value: ≤ -4.2 for the first, ≤ -4.2 for the second.

G74C C116G A150U and G70A C85G cannot be ordered by “polymerase ribozyme fitness (log ratio)” value: ≤ -4.2 for the first, ≤ -4.2 for the second.

Compared with G70A C85U, C75A U144G is lower in “polymerase ribozyme fitness (log ratio)” value: -3.46 for the first, ≤ -4.2 for the second.

Going from A73U A122G to G71A C96G, the “polymerase ribozyme fitness (log ratio)” value falls from -0.995 to -3.31.

Compared with C72G C105U, G71A U144A A147C is lower in “polymerase ribozyme fitness (log ratio)” value: -3.5 for the first, ≤ -4.2 for the second.

G70A C75U C87G C99G C103A G140U U144G U146G and A73U G83U A122C U127A cannot be ordered by “polymerase ribozyme fitness (log ratio)” value: ≤ -4.2 for the first, ≤ -4.2 for the second.

Going from A73U C76G G94A to C69U C85G C149U, the “polymerase ribozyme fitness (log ratio)” value rises from ≤ -4.2 to -2.74.

First: A73C C95U
Second: A73G G92A C99G G141U
The “polymerase ribozyme fitness (log ratio)” value of the first is higher: -2.49 for the first, ≤ -4.2 for the second.

Going from C69U G136U U146C to A73U G84A C108G G141A U145C, the “polymerase ribozyme fitness (log ratio)” value falls from -2.94 to ≤ -4.2.

First: A73C C85A A110C A119U G136U
Second: A73U G126U
The “polymerase ribozyme fitness (log ratio)” value of the first is lower: ≤ -4.2 for the first, -0.661 for the second.

G71C U102G G133C G141C and A73C C93G cannot be ordered by “polymerase ribozyme fitness (log ratio)” value: ≤ -4.2 for the first, ≤ -4.2 for the second.

First: C72A A73U C85G A138C U148C
Second: A73G A119C
The “polymerase ribozyme fitness (log ratio)” value of the first is lower: ≤ -4.2 for the first, -0.028 for the second.

First: C75G A113U
Second: C75G C95U
The “polymerase ribozyme fitness (log ratio)” value of the first is lower: ≤ -4.2 for the first, -2.19 for the second.

Compared with G71U G80C C95U U127A, A73U C95U G140A A142C is lower in “polymerase ribozyme fitness (log ratio)” value: -3.97 for the first, ≤ -4.2 for the second.

First: A73U U82A C95U
Second: G74U C96A C118U
The “polymerase ribozyme fitness (log ratio)” value of the first is higher: -1.04 for the first, -3.97 for the second.

C72U A91U A106C A115G A119U G143A U145G U151G and G70A A73G C79U G88C G133C A137C cannot be ordered by “polymerase ribozyme fitness (log ratio)” value: ≤ -4.2 for the first, ≤ -4.2 for the second.

C72G C99G U139A and A73U C75A G92A cannot be ordered by “polymerase ribozyme fitness (log ratio)” value: ≤ -4.2 for the first, ≤ -4.2 for the second.

Compared with G70C C87A G140A, A73G A142G is higher in “polymerase ribozyme fitness (log ratio)” value: ≤ -4.2 for the first, -1.38 for the second.

Compared with A73U C85U C103G C105G C116U A142G, A73C G92C is higher in “polymerase ribozyme fitness (log ratio)” value: ≤ -4.2 for the first, -3.64 for the second.

A73G A91U and C72U C93U U111C A119U A142G cannot be ordered by “polymerase ribozyme fitness (log ratio)” value: ≤ -4.2 for the first, ≤ -4.2 for the second.

Compared with A73U C85U, A73G C76U A142U is lower in “polymerase ribozyme fitness (log ratio)” value: -0.649 for the first, -2.11 for the second.

First: G70A U78C G88U U104G A113G G128U U135A
Second: G74A G92C
The “polymerase ribozyme fitness (log ratio)” value of the first is lower: ≤ -4.2 for the first, -2.84 for the second.

Compared with A73C G92A U101G, C69U G83A is higher in “polymerase ribozyme fitness (log ratio)” value: ≤ -4.2 for the first, -3.04 for the second.

Going from C69U G83U to C72U A89G C95A, the “polymerase ribozyme fitness (log ratio)” value falls from -0.933 to -1.39.

Going from A73G C93U G152A to G74A G141A, the “polymerase ribozyme fitness (log ratio)” value rises from -2.84 to -2.42.

A73G C85U U102G G124A and C72U A73C A98G C118A G124C U135C U139A cannot be ordered by “polymerase ribozyme fitness (log ratio)” value: ≤ -4.2 for the first, ≤ -4.2 for the second.

First: C75G C87A
Second: G71C G80C C95G U104G C116U
The “polymerase ribozyme fitness (log ratio)” value of the first is higher: -3.89 for the first, ≤ -4.2 for the second.

First: C72U U77C C96A A110G
Second: C72U A98G U134C
The “polymerase ribozyme fitness (log ratio)” value of the first is lower: ≤ -4.2 for the first, -0.362 for the second.

Going from G74A C85A U90C G141A U148C to G70C G83A C87U G117C, the “polymerase ribozyme fitness (log ratio)” value rises from ≤ -4.2 to -3.9.

C69U G84A A115G G117U G136C and C75A G86A A97G G136U cannot be ordered by “polymerase ribozyme fitness (log ratio)” value: ≤ -4.2 for the first, ≤ -4.2 for the second.

Going from C69U C116U U135A G136U to C69U C87A, the “polymerase ribozyme fitness (log ratio)” value falls from -4.18 to ≤ -4.2.

Going from C69U C87U G92C A150G to A73G C95G C96U G124U C149U G152A, the “polymerase ribozyme fitness (log ratio)” value falls from -3.27 to ≤ -4.2.

Going from C69U G81U to A73U C75G U78A A89G C93G C95A U146G, the “polymerase ribozyme fitness (log ratio)” value falls from -2.07 to ≤ -4.2.

First: G71C C129A
Second: C69U C85U U127G
The “polymerase ribozyme fitness (log ratio)” value of the first is lower: ≤ -4.2 for the first, -3.4 for the second.

First: C72U C76A
Second: C69U C96A
The “polymerase ribozyme fitness (log ratio)” value of the first is lower: -1.91 for the first, -1.12 for the second.

For G71C U111G, the “polymerase ribozyme fitness (log ratio)” value was ≤ -4.2.
